Experimental data as given in US20220064224A1 (NOVOBIND LIVESTOCK THERAPEUTICS, published 2022).

B1: NBX0430 (VHH)
VHH: QVQLQQSGGGLVQAGGSLRLSCAASGLTFGSPAMAWYRQAPGKEREWVATISRGGSTYYADSVKGRFTISRDNAKNTSYLQMNSLKPEETAVYYCAAGLSSMRYDYWGQGTQVTVSS
B2: NBX0417 (VHH)
VHH: QVQLQESGGGLVQPGGSLRLSCAASGSIFSINVMAWYRQAPGKEREYVASITRGGGDYYANSVKGRFTISRDNAKNAVYLQMNSLKPEDTAVYECNAQISQTISGDYRNYWGQGTQVTVSS
B3: NBX0415 (VHH)
VHH: QVQLQESGGGLVQAGGSLRLSCAASGRTFSSYAMGWFRQAPGKEREYVAAINRFGGTYYADFVKGRFTISRDNAKNTVYLQMNSLKPEDTAVYYCAASRILGLTTAREDYNYWGQGTQVTVSS
B4: NBX0412 (VHH)
VHH: QVQLQESGGGLVQAGGSLRLSCAVSGRTFSSYAMGWFRQAPGKEREYVAAINRFSGTYYADFVKGRFTISRDNAKNTVYLQMNSLKPEDTAVYYCAASRILGLSTAREDYNYWGQGTQVTVSS
B5: NBX0429 (VHH)
VHH: QVQLQQSGGGLVQAGGSLRLSCAASGRTFSSYAMGWFRQAPGKEREYVAAINRFGGTYYADFVKGRFTISRDNAKNTVYLQMNSLKPEDTAVYYCAASGILGLSTAREDYNYWGQGTQVTVSS
B6: NBX0431 (VHH)
VHH: QVQLQQSGGGLVQAGGSLRLSCAASGRTFSSYAMGWFRQAPGKEREYVAGINRFGGTYYADFVKGRFTISRDNAKNTVYLQMNSLKPEDTAVYYCAASRILGLSTAREDYNYWGQGTQVTVSS
B7: NBX0414 (VHH)
VHH: QVQLQESGGGLVQAGGSLRLSCRASGRTFSSSSMGWFRQAPGKERDFVAAISWDGASTRYADSVKGRFTISRDNAKNTVYLQMNSLKPEDTAVYYCAASTMDFIVLLTKWYPYWGQGTQVTVSS
B8: NBX0416 (VHH)
VHH: QVQLQESGGGLVQAGGSLRLSCAASGRTFSSSSMGWFRQAPGKERDFVAAINWSGDSTRYADSVKGRFTISRDNAKSTVYLQMNSLKPEDTAVYYCAASTMDFIVLLTKWYPYWGQGTQVTVSS
B9: NBX0426 (VHH)
VHH: QVQLQESGGGLVQPGGSLRLSCAASGIGDRPYVMAWHRQAPGKQRELVATITRDGYTNYADTVKGRFVVSRDNAQNTVYLQMNYLKPADTAVYYCRAYNAYLNLGYWGQGTQVTVST
B10: NBX0411 (VHH)
VHH: QVQLQESGGGLVQPGGSLRLSCAVSGLAFGRVAMAWYRQAPGKERELVARISSGGYTNYADSAKGRFTISRDNVKNLVYLQMNSLKFDDTAVYYCNSGWSGDYWGKGTLVTVSS
B11: NBX0421 (VHH)
VHH: QVQLQQSGGGLVQPGGSLRLSCAVSGLAFGRYAMAWYRQAPGKERELVARISNGGYTNYADSAKGRFTISRDNVKNTVYLEMNSLKFDDTAVYYCNSGWSGNYWGKGTLVTVSS
B12: NBX0428 (VHH)
VHH: QVQLQESGGGLVQAGGSLRLSCAASGSTSSINHIAWYRQAPGKQREWVATITSGGGSTYYTNSVKGRFTISRDNAKNTVYLQMNNLKPEDTAVYYCKANQAAGNKDYWGQGTQVTVSS

Target: Canine Parvovirus Type 2 (CPV2) (Canine parvovirus type 2)
Assay: cell-based or functional assay

Binder	Invasion reduced by >50% at 5 µM NBX [%]
B1	≤ 50
B2	≤ 50
B3	≤ 50
B4	≤ 50
B5	≤ 50
B6	≤ 50
B7	> 50
B8	≤ 50
B9	> 50
B10	> 50
B11	> 50
B12	> 50
